Numbered stars: 1 amine (or outer) side, 2 acyl side, 3 side chain; on linkers, the order of the positions; unused ones are H or OH. Square brackets hold non-standard residues; d marks the D form. Side chains are listed from the residue outwards. Ends that are not written are not given here. * marks the point of attachment. C18 diacid = O=C(O)CCCCCCCCCCCCCCCCC(=O)*; γGlu = O=C(O)[C@H](CCC(=O)[*:2])N[*:1]; hLeu = CC(C)CC[C@H](N)C(=O)O; Iva = CC[C@](C)(N)C(=O)O; AEEA = NCCOCCOCC(=O)O; Aib = CC(C)(N)C(=O)O
T1: human GIP receptor (human, UniProt P48546 22-466)
T1 sequence (looked up): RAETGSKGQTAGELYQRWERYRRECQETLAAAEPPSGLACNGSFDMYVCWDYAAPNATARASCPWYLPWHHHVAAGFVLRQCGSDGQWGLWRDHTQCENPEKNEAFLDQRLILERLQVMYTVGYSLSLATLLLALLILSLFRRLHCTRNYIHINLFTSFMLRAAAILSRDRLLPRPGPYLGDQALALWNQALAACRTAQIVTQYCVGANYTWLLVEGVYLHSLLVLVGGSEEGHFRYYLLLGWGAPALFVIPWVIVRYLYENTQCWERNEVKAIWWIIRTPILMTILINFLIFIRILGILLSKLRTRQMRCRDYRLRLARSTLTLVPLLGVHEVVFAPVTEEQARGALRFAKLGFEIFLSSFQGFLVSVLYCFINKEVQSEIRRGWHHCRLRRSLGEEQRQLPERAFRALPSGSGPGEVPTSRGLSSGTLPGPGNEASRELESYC

B1: SEQ ID NO: 34 (peptide)
peptide: H-Y[Aib]EGTFISD[hLeu]SI[Aib]K([AEEA-AEEA-γGlu-C18 diacid])DRIHQEEFIEWLLAQGPSSGAPPPS-NH2
SMILES: CC[C@H](C)[C@H](NC(=O)[C@H](Cc1ccccc1)NC(=O)[C@H](CCC(=O)O)NC(=O)[C@H](CCC(=O)O)NC(=O)[C@H](CCC(N)=O)NC(=O)[C@H](Cc1c[nH]cn1)NC(=O)[C@@H](NC(=O)[C@H](CCCNC(=N)N)NC(=O)[C@H](CC(=O)O)NC(=O)[C@H](CCCCNC(=O)COCCOCCNC(=O)COCCOCCNC(=O)CC[C@H](NC(=O)CCCCCCCCCCCCCCCCC(=O)O)C(=O)O)NC(=O)C(C)(C)NC(=O)[C@@H](NC(=O)[C@H](CO)NC(=O)[C@H](CCC(C)C)NC(=O)[C@H](CC(=O)O)NC(=O)[C@H](CO)NC(=O)[C@@H](NC(=O)[C@H](Cc1ccccc1)NC(=O)[C@@H](NC(=O)CNC(=O)[C@H](CCC(=O)O)NC(=O)C(C)(C)NC(=O)[C@@H](N)Cc1ccc(O)cc1)[C@@H](C)O)[C@@H](C)CC)[C@@H](C)CC)[C@@H](C)CC)C(=O)N[C@@H](CCC(=O)O)C(=O)N[C@@H](Cc1c[nH]c2ccccc12)C(=O)N[C@@H](CC(C)C)C(=O)N[C@@H](CC(C)C)C(=O)N[C@@H](C)C(=O)N[C@@H](CCC(N)=O)C(=O)NCC(=O)N1CCC[C@H]1C(=O)N[C@@H](CO)C(=O)N[C@@H](CO)C(=O)NCC(=O)N[C@@H](C)C(=O)N1CCC[C@H]1C(=O)N1CCC[C@H]1C(=O)N1CCC[C@H]1C(=O)N[C@@H](CO)C(N)=O
notes: Synthetic peptide, 39 residues
B2: SEQ ID NO: 19 (peptide)
peptide: Y[Aib]EGTFISDLSI[Aib]K([AEEA-AEEA-γGlu-C18 diacid])EEIHQ[Aib]EFIEWLLAQGPSSGAPPPS-NH2
modifications: N-terminus assumed
SMILES: CC[C@H](C)[C@H](NC(=O)[C@H](CCC(=O)O)NC(=O)[C@H](CCC(=O)O)NC(=O)[C@H](CCCCNC(=O)COCCOCCNC(=O)COCCOCCNC(=O)CC[C@H](NC(=O)CCCCCCCCCCCCCCCCC(=O)O)C(=O)O)NC(=O)C(C)(C)NC(=O)[C@@H](NC(=O)[C@H](CO)NC(=O)[C@H](CC(C)C)NC(=O)[C@H](CC(=O)O)NC(=O)[C@H](CO)NC(=O)[C@@H](NC(=O)[C@H](Cc1ccccc1)NC(=O)[C@@H](NC(=O)CNC(=O)[C@H](CCC(=O)O)NC(=O)C(C)(C)NC(=O)[C@@H](N)Cc1ccc(O)cc1)[C@@H](C)O)[C@@H](C)CC)[C@@H](C)CC)C(=O)N[C@@H](Cc1c[nH]cn1)C(=O)N[C@@H](CCC(N)=O)C(=O)NC(C)(C)C(=O)N[C@@H](CCC(=O)O)C(=O)N[C@@H](Cc1ccccc1)C(=O)N[C@H](C(=O)N[C@@H](CCC(=O)O)C(=O)N[C@@H](Cc1c[nH]c2ccccc12)C(=O)N[C@@H](CC(C)C)C(=O)N[C@@H](CC(C)C)C(=O)N[C@@H](C)C(=O)N[C@@H](CCC(N)=O)C(=O)NCC(=O)N1CCC[C@H]1C(=O)N[C@@H](CO)C(=O)N[C@@H](CO)C(=O)NCC(=O)N[C@@H](C)C(=O)N1CCC[C@H]1C(=O)N1CCC[C@H]1C(=O)N1CCC[C@H]1C(=O)N[C@@H](CO)C(N)=O)[C@@H](C)CC
notes: as for B1

What was measured:
[1] = target: T1, human GIP receptor; experiment: cell-based or functional assay
[2] = target: T2, human GLP-1 receptor (human, UniProt P43220 24-463); experiment: cell-based or functional assay
[3] = target: T1, human GIP receptor; experiment: cell-based or functional assay; remark: listed apart in the source
[4] = target: T1, human GIP receptor; experiment: displacement of [125I]GIP from HEK-293 membranes expressing hGIPR (SPA beads)
[5] = target: T2, human GLP-1 receptor; experiment: displacement of [125I]GLP-1 from HEK-293 membranes expressing hGLP-1R (SPA beads)

Row | Binder | EC50 hGIPR 0% HSA (cAMP, HEK-293) [1] | EC50 hGIPR 0.1% BSA (cAMP, HEK-293) [1] | EC50 hGLP-1R 0.1% BSA (cAMP, HEK-293) [2] | hGIPR EC50 (cAMP, human adipocytes) [3] | hGIPR Emax (cAMP, human adipocytes) [3] | IC50 [4] | IC50 [5] | EC50 hGIPR 0.1% HSA (cAMP, HEK-293) [1]
1 | H-Y[Aib]EGT[Iva]ISDLSI[Aib]K([AEEA-AEEA-γGlu-C18 diacid])DRIHQEEFIEWLLAQGPSSGAPPPS-NH2 (Synthetic peptide, 39 residues) [SEQ ID NO: 24] | 0.00056 nM | 0.0366 nM | > 10 nM | 0.2 nM | 100% | 0.1 nM | 188 nM | –
2 | B1 | 0.00022 nM | 0.0335 nM | > 10 nM | 0.5 nM | 112% | – | 195 nM | –
3 | B2 | 0.0002 nM | 0.0378 nM | > 10 nM | 8 nM | 94% | 2 nM | – | 0.0015 nM
